For the test, the target named is T1, GST-MPSR1 (Misfolded Protein Sensing RING E3 ligase 1) (Arabidopsis thaliana, UniProt Q9LQX2 1-204).
T1 sequence (looked up): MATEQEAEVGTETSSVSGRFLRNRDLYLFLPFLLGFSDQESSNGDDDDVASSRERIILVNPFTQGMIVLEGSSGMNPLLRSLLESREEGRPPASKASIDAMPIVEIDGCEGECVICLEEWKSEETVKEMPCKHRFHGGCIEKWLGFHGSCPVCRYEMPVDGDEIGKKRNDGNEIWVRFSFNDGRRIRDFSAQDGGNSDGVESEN
In words: pull-down.

Residue numbers refer to the chain shown, from its start.

B1: His-MPSR1-DN (enzyme, Arabidopsis thaliana, UniProt Q9LQX2 1-204, looked up)
chain: T1 sequence (looked up) with C153S
Take B1: the binding result is given as “binds”.

Source of the values: PMC5699081 (Proceedings of the National Academy of Sciences of the …, 2017).
